Among the data in the RNAGym collection of RNA variant scans (doi:10.1093/molbev/msab373) are reverse-splicing fitness values, retold here.

To fix the notation:
B1: Azoarcus group I ribozyme (parent)
chain: GUGCCUUGCGCCGGGAAACCACGCAAGGGAUGGUGUCAAAUUCGGCGAAACCUAAGCGCCCGCCCGGGCGUAUGGCAACGCCGAGCCAAGCUUCGGCGCCUGCGCCGAUGAAGGUGUAGAGACUAGACGGCACCCACCUAAGGCAAACGCUAUGGUGAAGGCAUAGUCCAGGGAGUGGCGAAAGUCACACAAACCGG

The variants in this series derive from B1. As to the kind of experiment: reverse-splicing fitness (ratio to wild type); higher = more active; in vitro selection; Mg2+ level not given. The method, boiled down: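 An in vitro group I ribozyme library with randomized positions was T7-transcribed and gel-purified. In triplicate, 10 pmol RNA in EPPS pH 7.5 was reacted with 50 pmoles of a 30-nt RNA substrate for 1 h at 37 °C across several added MgCl2 levels (1–48 mM), then stopped with EDTA. Products were reverse transcribed from a substrate-complementary primer, PCR-amplified and sequenced (HiSeq 4000). Fitness is a variant's read proportion after selection over that before, normalised to wild type.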
On to C82G A111U A120U A145C C150G C169U U176C, for which the reverse-splicing fitness turned out to be 0.00279. For C82G A120G U176G the value was 0.00803; for C82A A111C C150G U176C, 0.0124; for C82G A120C A145U C150U C169U U176G, 0.00456. Consider C82U A120U A145G C150G C169G, for which the reverse-splicing fitness came out at 0.00646. In the case of C82A A111C A120C A145U C150G U176G, the reverse-splicing fitness worked out at 0.00392. Turning to C82A A111G A145U C150A C169A U176G, the reverse-splicing fitness is 0.00674. In the case of C82G A145U C150U it was 0.321. For C82G A111U A120G A145C C150G C169G U176C the value was 0.00745; for C82U A120G A145G C169A U176C, 0.0335; for C82U A111G A145U C150A C169U U176C, 0.012. In the case of C82A A111U A145C C150U C169U it was 0.0112. Take A120U A145U C150G C169U U176A: the reverse-splicing fitness is 0.00679. For A111U A120G C169U U176A the value was 0.0505; for A111U A120G C169U U176C, 0.055. As to C82U A145C C150A C169A U176C, the reverse-splicing fitness was 0.00505. For C82A A120C A145U C169G U176A the value was 0.0152; for A120G A145C C150G C169A U176C, 0.031. In the case of C82A A111C A120C A145G C150A C169G U176G it was 0.00821; in that of A120G A145C C150A C169U, 0.0377; in that of A111G A145C C169A, 0.0493.

In the case of C82G A145G C150A C169U U176G, the reverse-splicing fitness was found to be 0.00552. As to A111C A120C A145G C150G C169U U176G, the reverse-splicing fitness stood at 0.0071. For C82A A111C A145G C169U U176G the value was 0.0073.

C82U A111G C150A C169A U176C: the reverse-splicing fitness stood at 0.0195. In the case of C82G A111U A145U C150A C169A U176C it was 0.0126. For C82U A111G A120C A145C C169A U176G the value was 0.003.

Turning to C82G A120U A145C C150A C169A U176A, the reverse-splicing fitness amounted to 0.0017. For C82A A111C A145G C150U U176G the value was 0.0141. In the case of C82U A111C A120U A145C C150G C169A U176G it was 0.0024; in that of C82G A111G A120C A145G C150G C169G U176G, 0.00653. In the case of C82U A111U A145U C150U C169U U176C it was 0.0115. Turning to C82U A111U A120U A145U C150A C169U U176G, the reverse-splicing fitness stood at 0.00195. In the case of C82U A111U A120U C150A U176A it was 0.00551. For C82A A111C A120G A145U C169G U176A the value was 0.0102. In the case of C82G A111U A120C A145U C169G U176C it was 0.0213. Take A111G C169G U176C: the reverse-splicing fitness came to 0.0577. For A111C A120G C150U U176A the value was 0.0245; for C82G A111G A120G A145U C150U U176C, 0.0212. In the case of A111U A120G C150A C169G it was 0.0231; in that of A120U A145G C150U C169A U176C, 0.00469. With C82U A145U C150U C169U U176C, the reverse-splicing fitness was determined as 0.0115.

Take C82U A111G A120C C169A U176C: the reverse-splicing fitness is 0.0132.

As for C82U A120U A145C C150U C169G U176A, the reverse-splicing fitness stood at 0.00259. For A111G A120G A145U C150A U176C the value was 0.0234; for A111U A145U C150U C169U U176G, 0.00684; for C82A A111C A145U C150G C169G U176G, 0.00861. In the case of C82G A120C A145G C150A U176C it was 0.034; in that of A111C A120U C150G C169G U176C, 0.0039; in that of C82U A111G A120C A145U U176G, 0.00658.

Consider C82A A120U A145G C150A C169U U176C, for which the reverse-splicing fitness was 0.00385. In the case of C82U A111U C150G C169A it was 0.00799. In the case of A111C A120G C150A C169G U176C it was 0.0245; in that of C82G A111U A120U U176C, 0.0167; in that of C82U A120U A145U C150G C169A, 0.00259.

As to C82A A111G A120C A145G C150G U176A, the reverse-splicing fitness is 0.00873. Consider C82G A111G A120U C150G, for which the reverse-splicing fitness was found to be 0.00849.

As to C82G A120G A145C C150A C169A, the reverse-splicing fitness was 0.00825. For C82U A111C A120U A145U C150G C169A U176A the value was 0.00336; for C82A A111G A120U A145U C150A C169A U176C, 0.00213; for C82G A111C A120C A145C C169A U176G, 0.0064. For C82U A111C A120C C150G C169A U176G the value was 0.00618. In the case of A111U A120U A145U C150G it was 0.0604; in that of A111U A120U A145C U176G, 0.0539; in that of C82A A111U A120G C169G U176G, 0.00439. On to C82A A111C A145U C150U C169G U176A, for which the reverse-splicing fitness amounted to 0.0143.

Consider C82G A111U A120C A145U C150G U176A, for which the reverse-splicing fitness worked out at 0.0058. For C82A A120C A145C C150A C169G the value was 0.0078; for A111C A120C A145G C150A C169U U176C, 0.024.

On to C82G A111G A120G A145C C150A C169G U176G, for which the reverse-splicing fitness was found to be 0.00603. For C82A A145G C150A C169A the value was 0.0108; for A120C A145U C150A C169G U176C, 0.0105. Turning to C82G A120G A145G C150U U176C, the reverse-splicing fitness amounted to 0.0211. For C82G A145U C150A C169G U176C the value was 0.0129. For A111U A145U C169G U176C the value was 0.0214; for C82G A111U A120G A145U C150U C169G U176A, 0.0145; for A120C A145C C150A C169G U176G, 0.00492. For A111G A120U A145G C150U C169G U176C the value was 0.0118; for C82G A111U C150U C169G U176C, 0.0169. Regarding A111U A120C A145C C150A C169G U176C, the reverse-splicing fitness turned out to be 0.00889. With C82U A111U A120U A145U C150G C169U U176A, the reverse-splicing fitness turned out to be 0.00242. For C82G A120U A145U C150U C169U the value was 0.00488; for A111G C150A C169G, 0.0174.
